This note sets out measurements from PMC9733695.

In the assay the target is human FcRn (neonatal Fc receptor), coupled to a Sepharose affinity column (human) (UniProt P55899). As to the kind of experiment: FcRn affinity chromatography.
Chain of UniProt P55899 (P55899 whole entry, looked up, tested part not stated): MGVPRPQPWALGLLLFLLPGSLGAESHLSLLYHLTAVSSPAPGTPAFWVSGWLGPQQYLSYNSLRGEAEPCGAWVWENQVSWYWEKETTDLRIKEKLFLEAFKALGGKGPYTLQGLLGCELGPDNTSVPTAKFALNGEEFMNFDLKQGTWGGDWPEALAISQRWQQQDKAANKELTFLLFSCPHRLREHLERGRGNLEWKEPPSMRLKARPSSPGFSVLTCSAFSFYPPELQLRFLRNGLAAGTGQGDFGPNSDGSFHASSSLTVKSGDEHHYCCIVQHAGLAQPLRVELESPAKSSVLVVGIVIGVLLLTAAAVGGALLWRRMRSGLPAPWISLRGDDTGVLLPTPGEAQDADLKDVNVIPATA

The substance “Antibody 4 TM (human IgG1 Fc with the TM modification)” had a retention time on the FcRn affinity column of 15.9 min.

As to Antibody 4 WT (wild-type human IgG1 Fc), the retention time on the FcRn affinity column came to 16.3 min.
